T1: Synechocystis cytb6f-PetP complex (Rieske ISP subunit) (Synechocystis sp. PCC 6803, UniProt P26290)
T1 construct: gene petC1; same complex as P1; with Cytochrome b6; Cytochrome b6-f complex subunit 4; Cytochrome f; Cytochrome b6-f complex subunit 5; Cytochrome b6-f complex subunit 6; Cytochrome b6-f complex subunit 7; Cytochrome b6-f complex subunit 8; Cytochrome b6f regulatory subunit PetP
T1 sequence (P26290 2-180): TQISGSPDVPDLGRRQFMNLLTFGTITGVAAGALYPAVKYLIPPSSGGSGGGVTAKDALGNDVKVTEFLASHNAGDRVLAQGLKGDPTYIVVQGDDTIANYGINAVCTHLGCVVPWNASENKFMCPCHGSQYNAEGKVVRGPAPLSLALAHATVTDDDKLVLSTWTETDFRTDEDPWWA

T2: subunit IV of the Synechocystis cytb6f complex (Synechocystis sp. PCC 6803, UniProt P27589 1-160)
T2 construct: subunit IV, Synechocystis sp; PCC 6803, endogenous subunit of cytb6f; Stood in the structure as a subunit of m2; also called subIV; source: Synechocystis PetA-StrepII strain, purified as part of cytb6f (StrepTrap HP, SEC)
T2 sequence: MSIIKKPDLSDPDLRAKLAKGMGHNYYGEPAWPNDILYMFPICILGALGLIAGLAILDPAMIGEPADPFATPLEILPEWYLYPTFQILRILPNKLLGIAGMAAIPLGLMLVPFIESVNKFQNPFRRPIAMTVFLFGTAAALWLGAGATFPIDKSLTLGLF

T3: cytochrome b6 subunit of the Synechocystis cytb6f complex (Synechocystis sp. PCC 6803, UniProt Q57038 1-222)
T3 construct: cytochrome b6, Synechocystis sp; PCC 6803, endogenous subunit of cytb6f; Stood in the structure as a subunit of m2; source: Synechocystis PetA-StrepII strain, purified as part of cytb6f (StrepTrap HP, SEC)
T3 sequence: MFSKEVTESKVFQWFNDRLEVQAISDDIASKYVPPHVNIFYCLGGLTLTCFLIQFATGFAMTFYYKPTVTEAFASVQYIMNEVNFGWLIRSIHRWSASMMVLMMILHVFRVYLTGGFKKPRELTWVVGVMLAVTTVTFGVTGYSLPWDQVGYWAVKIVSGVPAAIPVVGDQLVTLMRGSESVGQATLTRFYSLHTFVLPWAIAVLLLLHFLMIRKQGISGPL

B1: N-terminally hexa-Histidine (His)-tagged PetP (natural protein, Synechocystis sp. PCC 6803)
chain: MTIEIGQKVKVYRLRDRVSPDVVGKLGKVGVVKDFKMTDGSGIGAVVSFDDRTATWFFEDELKAI
notes: PetP, Synechocystis sp; PCC 6803, gene petP (ssr2998), codon optimized for E. coli, cloned into the NdeI and XhoI sites of pET28a(+); About 10 kDa protein; The vector pET28a(+) adds further residues between the His tag and the NdeI site; also called His-PetP; His6-tagged PetP; source: E. coli BL21(DE3), purified (HisTrap IMAC, PD-10 desalting); not shown: His6, N-terminal, kept
B2: PetG subunit of the Synechocystis cytb6f complex (natural protein, Synechocystis sp. PCC 6803)
chain: MIEPLLLGIVLGLIPVTLAGLFVAAYLQYKRGNQFNLD
notes: PetG, Synechocystis sp; PCC 6803, endogenous subunit of cytb6f; Stood in the structure as a subunit of m2; source: Synechocystis PetA-StrepII strain, purified as part of cytb6f (StrepTrap HP, SEC)

Assay [1] addresses T1, Synechocystis cytb6f-PetP complex (Rieske ISP subunit). As to the kind of experiment: cryo-EM structure, […] Å. Format: binding. The following applies: native co-purified.
Assay [2] deals with Synechocystis sp. PCC 6803 cytochrome b6f complex with C-terminally StrepII-tagged PetA, purified dimer (Synechocystis sp. PCC 6803) (UniProt P26287). As to the kind of experiment: native gel or EMSA; BN-PAGE on NativePAGE 3-12% Bis-Tris gels, Coomassie stain; purified cytb6f and cytb6f-PetP; dimer against monomer of the complex.
Assay [3] shares this target. Briefly: cryo-EM structure; reconstituted cytb6f-PetP complex, 20 uM, in buffer D with GDN; 2.80 A.
The target is the same in assay [4]. Briefly: cryo-EM structure; cytb6f without PetP, 17 uM, in GDN; 3.15 A.
Assay [5] has as its target T4, Synechocystis cytb6f complex (carotenoid site) (Synechocystis sp. PCC 6803, UniProt P0DXY4+P74149+P74810+Q57038).
T4 construct: gene petB; same complex as P1; with Cytochrome b6-f complex subunit 4; Cytochrome f; Cytochrome b6-f complex iron-sulfur subunit; Cytochrome b6-f complex subunit 8; Cytochrome b6f regulatory subunit PetP
As to the kind of experiment: cryo-EM structure; HPLC of extracted pigments. Format: binding. Particulars: native co-purified; 9-cis configuration suggested.

Assay [6] addresses T5, Synechocystis cytb6f-PetP complex (cytochrome b6 / subunit IV core) (Synechocystis sp. PCC 6803, UniProt P27589+Q57038).
T5 construct: gene petB; native dimeric complex from Synechocystis thylakoids in GDN, cytochrome f with C-terminal Ser-Ala-Strep-tag II; reconstituted with His6-PetP from E. coli; with Cytochrome f; Cytochrome b6-f complex iron-sulfur subunit; Cytochrome b6-f complex subunit 5; Cytochrome b6-f complex subunit 6; Cytochrome b6-f complex subunit 7; Cytochrome b6-f complex subunit 8; Cytochrome b6f regulatory subunit PetP
As to the kind of experiment: cryo-EM structure, […] Å. The following applies: Qn site, one PQ per monomer near heme cn; native co-purified; with PetP. Format: binding.

Assay [7] addresses T2, subunit IV of the Synechocystis cytb6f …. As to the kind of experiment: cryo-EM structure; reconstituted cytb6f-PetP complex, 20 uM, in buffer D with GDN; 2.80 A. Particulars: both partners purified.
The target of assay [8] is T3, cytochrome b6 subunit of the …. The description is as above. Particulars: both partners purified.
For assay [9], the target named is B1. Described as above. Particulars: both partners purified.

For `[S]1[Fe][S][Fe]1` [2Fe-2S cluster], the “cryo-EM structure, 2.80 Å” value in assay [1] is “the 2Fe-2S cluster (orange Fe and yellow S)”. Regarding “Synechocystis sp. PCC 6803 cytochrome b6f complex with C-terminally StrepII-tagged PetA, purified dimer (from UniProt P26287 45-328; Q57038 1-222; P27589 1-160; P74149 1-38; P74810 1-36; P72717 1-29)”, the stoichiometry N in assay [2], in [3] and in assay [4] was 2 throughout.

Turning to `CC1=C(/C=C/C(C)=C/C=C/C(C)=C/C=C/C=C(C)/C=C/C=C(C)/C=C/C2=C(C)C(=O)CCC2(C)C)C(C)(C)CCC1` [echinenone], in [5], the “cryo-EM structure; HPLC of extracted pigments” value is listed as “clear density for the ketone group on the end ring of echinenone”. `CC(C)=CCC/C(C)=C/CC/C(C)=C/CC/C(C)=C/CC/C(C)=C/CC/C(C)=C/CC/C(C)=C/CC/C(C)=C/CC/C(C)=C/CC1=CC(=O)C(C)=C(C)C1=O` [PQ, plastoquinone]: the “cryo-EM structure, 2.80 Å” value in assay [6] was “resolves two native PQ molecules, one bound at each Qn site within the dimer”. For B1, the binding result in [7] and in [8] was “binds” in each case. Regarding B2, the binding result in assay [9] is reported as “binds”.

The record behind these values is article PMC9342900, “Cryo-EM structures of the Synechocystis sp. PCC 6803 cytochrome b6f complex with and without the regulatory PetP subunit” (Biochemical Journal, 2022).
